In patent US20230338555A1 (IONIS PHARMACEUTICALS, published 2023):
Where two headings read alike, the source gives them in different places. Blank lines part the entries; values can stand above or below the binder they belong to. Ends that are not written are not given here.

How the values were obtained:
Test in all cases: cell-based or functional assay
[1] = target: T1, human sortilin stably expressed on HEK 293 cells (HEK-SORT1 cells) (human, UniProt Q99523 78-831)
T1 sequence (looked up): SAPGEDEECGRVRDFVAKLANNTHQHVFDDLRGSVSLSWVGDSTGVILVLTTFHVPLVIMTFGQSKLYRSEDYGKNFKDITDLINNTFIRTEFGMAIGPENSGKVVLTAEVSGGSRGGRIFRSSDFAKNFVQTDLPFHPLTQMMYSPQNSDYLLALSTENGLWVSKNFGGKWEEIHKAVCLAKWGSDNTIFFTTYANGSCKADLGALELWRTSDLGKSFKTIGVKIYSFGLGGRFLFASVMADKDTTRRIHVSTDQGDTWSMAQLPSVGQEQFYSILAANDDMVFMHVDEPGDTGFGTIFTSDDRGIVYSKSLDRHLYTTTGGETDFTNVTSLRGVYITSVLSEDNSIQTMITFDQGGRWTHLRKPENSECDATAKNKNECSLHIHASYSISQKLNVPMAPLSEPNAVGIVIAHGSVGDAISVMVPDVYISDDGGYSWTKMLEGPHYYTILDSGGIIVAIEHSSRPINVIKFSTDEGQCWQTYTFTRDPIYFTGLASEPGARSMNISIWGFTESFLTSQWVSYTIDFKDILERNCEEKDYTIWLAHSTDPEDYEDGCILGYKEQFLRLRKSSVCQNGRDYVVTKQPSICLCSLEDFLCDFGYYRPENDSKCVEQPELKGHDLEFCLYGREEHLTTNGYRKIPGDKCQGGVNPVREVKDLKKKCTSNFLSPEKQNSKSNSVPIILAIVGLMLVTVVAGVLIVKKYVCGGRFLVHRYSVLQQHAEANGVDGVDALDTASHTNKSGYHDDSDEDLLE

[2] = target: T1, human sortilin stably expressed on HEK …; remark: listed apart in the source
[3] = target: T1, human sortilin stably expressed on HEK …; remark: listed apart in the source
[4] = target: T1, human sortilin stably expressed on HEK …; remark: listed apart in the source
[5] = target: T1, human sortilin stably expressed on HEK …; remark: listed apart in the source
[6] = target: T1, human sortilin stably expressed on HEK …; remark: listed apart in the source

B1: Compound 17-AH-1492, Cy3-labeled extended neurotensin (eNT, …) (peptide)
peptide: KPPPAGSSPGLYENKPRRPYIL
modifications: not fully specified (residue 1); also: Cy3 label attached by BCN click to the azide
- Mean Fluorescence Intensity (MFI), uptake 37C-4C, at 7 nM [1]: 84 MFI
- Mean Fluorescence Intensity (MFI), uptake 37C-4C, at 22 nM [1]: 266 MFI
- Mean Fluorescence Intensity (MFI), uptake 37C-4C, at 76 nM [1]: 593 MFI
- Mean Fluorescence Intensity (MFI), uptake 37C-4C, at 260 nM [1]: 869 MFI
- Mean Fluorescence Intensity (MFI), uptake 37C-4C, at 882 nM [1]: 1180 MFI
- Mean Fluorescence Intensity (MFI), uptake 37C-4C, at 3000 nM [1]: 1440 MFI
- Mean Fluorescence Intensity (MFI), uptake 37C-4C, at 12 nM [2]: 167 MFI
- Mean Fluorescence Intensity (MFI), uptake 37C-4C, at 37 nM [2]: 390 MFI
- Mean Fluorescence Intensity (MFI), uptake 37C-4C, at 111 nM [2]: 724 MFI
- Mean Fluorescence Intensity (MFI), uptake 37C-4C, at 333 nM [2]: 1030 MFI
- Mean Fluorescence Intensity (MFI), uptake 37C-4C, at 1000 nM [2]: 1260 MFI
- Mean Fluorescence Intensity (MFI), uptake 37C-4C, at 12 nM [3]: 108 MFI
- Mean Fluorescence Intensity (MFI), uptake 37C-4C, at 37 nM [3]: 334 MFI
- Mean Fluorescence Intensity (MFI), uptake 37C-4C, at 111 nM [3]: 763 MFI
- Mean Fluorescence Intensity (MFI), uptake 37C-4C, at 333 nM [3]: 1100 MFI
- Mean Fluorescence Intensity (MFI), uptake 37C-4C, at 1000 nM [3]: 1360 MFI

B4: Compound No. 1270698, XLYENKPKRPYIL peptide conjugated to 20-mer MOE oligonucleotide with 3'-Cy3 (peptide)
peptide: XLYENKPKRPYIL
modifications: not fully specified; X at position 1 is 2-azido-acetyl lysine, joined via triazolo-BCN carbamate / 6-aminohexanol linker to 5' end of … (SEQ ID NO 2, uniform MOE, phosphodiester, 3'-Cy3)
- Mean Fluorescence Intensity (MFI), uptake 37C-4C, at 12 nM [5]: 35 MFI
- Mean Fluorescence Intensity (MFI), uptake 37C-4C, at 37 nM [5]: 48 MFI
- Mean Fluorescence Intensity (MFI), uptake 37C-4C, at 111 nM [5]: 78 MFI
- Mean Fluorescence Intensity (MFI), uptake 37C-4C, at 333 nM [5]: 155 MFI
- Mean Fluorescence Intensity (MFI), uptake 37C-4C, at 1000 nM [5]: 394 MFI

B6: Compound No. 1252445, XAGMSGASAGLYENKPRRPYIL peptide conjugated to 20-mer MOE oligonucleotide with 3'-Cy3 (peptide)
peptide: KAGMSGASAGLYENKPRRPYIL
modifications: not fully specified (residue 1); also: X side chain clicked via BCN (triazole) and 6-aminohexanol linker to 5' end of oligonucleotide CCAGGCTGGTTATGACTCAG (MOE, 3'-Cy3)
- Mean Fluorescence Intensity (MFI), uptake 37C-4C, at 7 nM [1]: 55 MFI
- Mean Fluorescence Intensity (MFI), uptake 37C-4C, at 22 nM [1]: 85 MFI
- Mean Fluorescence Intensity (MFI), uptake 37C-4C, at 76 nM [1]: 306 MFI
- Mean Fluorescence Intensity (MFI), uptake 37C-4C, at 260 nM [1]: 868 MFI
- Mean Fluorescence Intensity (MFI), uptake 37C-4C, at 882 nM [1]: 1950 MFI
- Mean Fluorescence Intensity (MFI), uptake 37C-4C, at 3000 nM [1]: 2880 MFI

The next lines start with the values.

- Mean Fluorescence Intensity (MFI), uptake 37C-4C, at 12 nM [3]: 41 MFI
- Mean Fluorescence Intensity (MFI), uptake 37C-4C, at 37 nM [3]: 52 MFI
- Mean Fluorescence Intensity (MFI), uptake 37C-4C, at 111 nM [3]: 71 MFI
- Mean Fluorescence Intensity (MFI), uptake 37C-4C, at 333 nM [3]: 130 MFI
- Mean Fluorescence Intensity (MFI), uptake 37C-4C, at 1000 nM [3]: 278 MFI
B2: 1162756 duplex (Compound No. 1162756 complexed to complementary MOE oligonucleotide …) (peptide)
peptide: KPPPAGSSPGLYENKPRRPYIL
modifications: not fully specified (residue 1); also: oligonucleotide hybridized to complementary MOE strand CTGAGTCATAACCAGCCTGG (duplex)

- Mean Fluorescence Intensity (MFI), uptake 37C-4C, at 7 nM [4]: 53 MFI
- Mean Fluorescence Intensity (MFI), uptake 37C-4C, at 22 nM [4]: 102 MFI
- Mean Fluorescence Intensity (MFI), uptake 37C-4C, at 76 nM [4]: 259 MFI
- Mean Fluorescence Intensity (MFI), uptake 37C-4C, at 260 nM [4]: 817 MFI
- Mean Fluorescence Intensity (MFI), uptake 37C-4C, at 882 nM [4]: 2100 MFI
- Mean Fluorescence Intensity (MFI), uptake 37C-4C, at 3000 nM [4]: 4220 MFI
- Mean Fluorescence Intensity (MFI), uptake 37C-4C, at 7 nM [1]: 51 MFI
- Mean Fluorescence Intensity (MFI), uptake 37C-4C, at 22 nM [1]: 122 MFI
- Mean Fluorescence Intensity (MFI), uptake 37C-4C, at 76 nM [1]: 309 MFI
- Mean Fluorescence Intensity (MFI), uptake 37C-4C, at 260 nM [1]: 937 MFI
- Mean Fluorescence Intensity (MFI), uptake 37C-4C, at 882 nM [1]: 2070 MFI
- Mean Fluorescence Intensity (MFI), uptake 37C-4C, at 3000 nM [1]: 3380 MFI
- Mean Fluorescence Intensity (MFI), uptake 37C-4C, at 12 nM [2]: 67 MFI
- Mean Fluorescence Intensity (MFI), uptake 37C-4C, at 37 nM [2]: 119 MFI
- Mean Fluorescence Intensity (MFI), uptake 37C-4C, at 111 nM [2]: 246 MFI
- Mean Fluorescence Intensity (MFI), uptake 37C-4C, at 333 nM [2]: 812 MFI
- Mean Fluorescence Intensity (MFI), uptake 37C-4C, at 1000 nM [2]: 1390 MFI
- Mean Fluorescence Intensity (MFI), uptake 37C-4C, at 12 nM [3]: 61 MFI
- Mean Fluorescence Intensity (MFI), uptake 37C-4C, at 37 nM [3]: 124 MFI
- Mean Fluorescence Intensity (MFI), uptake 37C-4C, at 111 nM [3]: 364 MFI
- Mean Fluorescence Intensity (MFI), uptake 37C-4C, at 333 nM [3]: 839 MFI
- Mean Fluorescence Intensity (MFI), uptake 37C-4C, at 1000 nM [3]: 1560 MFI
B3: Compound No. 1162756, extended neurotensin (eNT, XPPPAGSSPGLYENKPRRPYIL) conjugated to 20-mer MOE oligonucleotide with 3'-Cy3 (peptide)
peptide: KPPPAGSSPGLYENKPRRPYIL
modifications: not fully specified (residue 1); also: X side chain clicked via BCN (triazole) and 6-aminohexanol linker to 5' end of oligonucleotide CCAGGCTGGTTATGACTCAG (MOE, 3'-Cy3)

- Mean Fluorescence Intensity (MFI), uptake 37C-4C, at 7 nM [4]: 47 MFI
- Mean Fluorescence Intensity (MFI), uptake 37C-4C, at 22 nM [4]: 69 MFI
- Mean Fluorescence Intensity (MFI), uptake 37C-4C, at 76 nM [4]: 205 MFI
- Mean Fluorescence Intensity (MFI), uptake 37C-4C, at 260 nM [4]: 675 MFI
- Mean Fluorescence Intensity (MFI), uptake 37C-4C, at 882 nM [4]: 1810 MFI
- Mean Fluorescence Intensity (MFI), uptake 37C-4C, at 3000 nM [4]: 3140 MFI
Binder: CPPPAGSSPGLYENKPRRPYIL (not fully specified)

- Mean Fluorescence Intensity (MFI), uptake 37C-4C, at 12 nM [6]: 70 MFI
- Mean Fluorescence Intensity (MFI), uptake 37C-4C, at 37 nM [6]: 75 MFI
- Mean Fluorescence Intensity (MFI), uptake 37C-4C, at 111 nM [6]: 86 MFI
- Mean Fluorescence Intensity (MFI), uptake 37C-4C, at 333 nM [6]: 138 MFI
- Mean Fluorescence Intensity (MFI), uptake 37C-4C, at 1000 nM [6]: 267 MFI
- Mean Fluorescence Intensity (MFI), uptake 37C-4C, at 3000 nM [6]: 631 MFI
B5: Compound No. 18-AJ9998, Morpholino oligomer-neurotensin conjugate 11 (Cy3 labeled) (peptide)
peptide: XLYENKPRRPYIL
modifications: X at position 1 is 2-azido-acetyl lysine joined via BCN to a Cy3-labeled phosphorodiamidate morpholino oligomer
